# Publication PMC4409310, “Substrate Recognition and Modification by the Nosiheptide Resistance Methyltransferase” (PLoS ONE, 2015)
# B1: HA-His-NHR-R135A (enzyme, Streptomyces actuosus, UniProt P52391 1-274, looked up)
# chain: MTEPAIITNASDPAVQRIIDVTKHSRASIKTTLIEDTEPLMECIRAGVQFIEVYGSSGTPLDPALLDLCRQREIPVRLIDVSIVNQLFKAERKAKVFGIARVPRPARLADIAERGGDVVVLDGVKIVGNIGAIVATSLALGAAGIVLVDSDLATIADRRLLRASRGYVFSLPVVLADREEAVSFLRDNDIALMVLDTDGDLGVKDLGDRADRMALVFGSEKGGPSGLFQEASAGTVSIPMLSSTESLNVSVSVGIALHERSARNFAVRRAAAQA
# notes: nosiheptide resistance methyltransferase (NHR), Streptomyces actuosus; Homodimer when alone; in the heterodimer with Flag-Trx-His-NHR one chain of each construct; also called HA-NHR-R135A; HA-R135A-NHR; source: site-directed mutagenesis of His-NHR, HA tag added by PCR; purified (Ni-NTA, gel filtration); not shown: His6, N-terminal, kept
# Legend:
# [1] = molecular target: the molecule itself; assay: native gel or EMSA; differently tagged (short and long) NHR proteins mixed at 4°C overnight, then incubated with 58 nt or 29 nt RNA (6-10 μM RNA, 2-10 μM protein) for 1 hour at 4°C in 25 mM Hepes-KOH, 25 mM NH4Cl, 5 mM MgCl2, 5 mM DTT, pH 8.0; 6% polyacrylamide native gel, SYBR Gold; dimers seen as RNA-protein complexes
# [2] = molecular target: B1; assay: as above; details: both partners purified
binder,measurement,setting,value
"N-terminal hexahistidine tagged nosiheptide resistance methyltransferase (His-NHR) (enzyme, Streptomyces actuosus, UniProt P52391 1-274, looked up, nosiheptide resistance methyltransferase (NHR), Streptomyces actuosus; wild type; Homodimer when alone; in the heterodimer with Trx-NHR one chain of each construct; also called NHR(S); short, S; source: over expressed from pET-28a-NHR, purified (Ni-NTA, gel filtration); not shown: His6, N-terminal, kept) MTEPAIITNASDPAVQRIIDVTKHSRASIKTTLIEDTEPLMECIRAGVQFIEVYGSSGTPLDPALLDLCRQREIPVRLIDVSIVNQLFKAERKAKVFGIARVPRPARLADIAERGGDVVVLDGVKIVGNIGAIVRTSLALGAAGIVLVDSDLATIADRRLLRASRGYVFSLPVVLADREEAVSFLRDNDIALMVLDTDGDLGVKDLGDRADRMALVFGSEKGGPSGLFQEASAGTVSIPMLSSTESLNVSVSVGIALHERSARNFAVRRAAAQA",stoichiometry N,[1],2
"thioredoxin tagged nosiheptide resistance methyltransferase (Trx-NHR) (enzyme, Streptomyces actuosus, UniProt P52391 1-274, looked up, nosiheptide resistance methyltransferase (NHR), Streptomyces actuosus; wild type; Homodimer when alone; in the heterodimer with His-NHR one chain of each construct; Named Trx-His-NHR in the methods; also called Trx-His-NHR; NHR(L); source: over expressed from pET-32M-NHR, purified (Ni-NTA, gel filtration); not shown: thioredoxin, N-terminal, kept) MTEPAIITNASDPAVQRIIDVTKHSRASIKTTLIEDTEPLMECIRAGVQFIEVYGSSGTPLDPALLDLCRQREIPVRLIDVSIVNQLFKAERKAKVFGIARVPRPARLADIAERGGDVVVLDGVKIVGNIGAIVRTSLALGAAGIVLVDSDLATIADRRLLRASRGYVFSLPVVLADREEAVSFLRDNDIALMVLDTDGDLGVKDLGDRADRMALVFGSEKGGPSGLFQEASAGTVSIPMLSSTESLNVSVSVGIALHERSARNFAVRRAAAQA",stoichiometry N,[1],2
B1,stoichiometry N,[1],2
"Flag-Trx-His-NHR (enzyme, Streptomyces actuosus, UniProt P52391 1-274, looked up, nosiheptide resistance methyltransferase (NHR), Streptomyces actuosus; wild type; Homodimer when alone; in the heterodimer with HA-His-NHR-R135A one chain of each construct; also called Flag-NHR; Flag-Trx-NHR; source: Flag tag added to Trx-His-NHR by PCR; purified (Ni-NTA, gel filtration); not shown: thioredoxin, N-terminal, kept) MTEPAIITNASDPAVQRIIDVTKHSRASIKTTLIEDTEPLMECIRAGVQFIEVYGSSGTPLDPALLDLCRQREIPVRLIDVSIVNQLFKAERKAKVFGIARVPRPARLADIAERGGDVVVLDGVKIVGNIGAIVRTSLALGAAGIVLVDSDLATIADRRLLRASRGYVFSLPVVLADREEAVSFLRDNDIALMVLDTDGDLGVKDLGDRADRMALVFGSEKGGPSGLFQEASAGTVSIPMLSSTESLNVSVSVGIALHERSARNFAVRRAAAQA",binding result,[2],binds
same,stoichiometry N,[1],2
